A short description of data set [1]: Particle size, polydispersity and zeta-potential by dynamic light scattering. The class given is physicochemical. The conditions noted are these: Table 6. The protocol:
Nanoparticle carrier particles were formed by the methods of the preceding Example, and characterized as follows. The particle size and the zeta-potential were measured using Zeta Plus zeta-potential analyzer (Brookhaven Instruments Ltd., New York, N.Y.), which employs the dynamic light scattering technique for particle size measurement. The particle size and zeta-potential measurements were made after 1:1000 dilution of particle stock in filtered deionized water. Further, the particles were visualized using a transmission electron microscope (TEM). The carbon-coated grids were floated on a suspension droplet of plain or functionalized nanoparticles on a flexible plastic film (Parafilm, Pechiney Plastic Packaging, Neenah, Wis.) to allow the adsorption of nanoparticles onto the grid. After drying the particles, uranyl acetate was added as a negative stain to the carbon grid and allowed to react with the particles. This procedure makes the particles electron dense, allowing their visualization using an electron microscope. The particles were photographed using EM410 Phillips electron microscope (Eindhoven, The Netherlands) set at 60 kV and a magnification of 153000×.
Characterization of particles: The particle size and the zeta-potential were measured using ZetaPlus® zeta-potential analyzer, Brookhaven Instruments Ltd. (New York, N.Y.), which employs the dynamic light scattering technique for particle size measurement. The particle size and zeta-potential measurements were carried out after 1:1000 dilution of particle stock in filtered deionized water before lyophilization in filtered deionized water. The effective diameter of conjugated nanoparticles was higher than that of unconjugated nanoparticles.
Particle Size Analysis: Particle size and zeta-potential of the nanoparticles before and after conjugation following lyophilization were measured in double distilled water (100 μl of particle/1 ml of water) using dynamic light scattering (DLS). After lyophilization the plasmid loaded particles were weighed (1 mg) into glass Kimble tubes. To each tube, 1 ml of double distilled water was added and vortexed at high speed (Vortex Genie, Scientific Industries, Bohemia, N.Y.) till the particles were resuspended. The particle size and zeta potential was determined using dynamic light scattering after dilution (1:10 in double distilled water) (Brookhaven Instruments Corp., Holtsville, N.Y.). Nanoparticle size after lyophilization was 210.4±0.68 nm and zeta potential was −32.85±0.87 mV. Nanoparticle size and zeta potential was measured after conjugation with deslorelin and transferrin. Similarly, the unconjugated nanoparticles were also treated under the same conditions as with the conjugated nanoparticles (the conjugation protocol as mentioned above).
Transport studies were conducted in bovine nasal tissue. Bovine nasal tissue was obtained from freshly slaughtered cattle, and different regions (MTA, MTP, ITP) were prepared as described in Example 13. Nanoparticles coupled to deslorelin or transferring via aldehyde sulfate moieties were prepared as described in Example 3. The nanoparticle size was measured using a Zeta Plus Analyzer (Brookhaven Instruments Limited, UK). Particle size was analyzed before and after ligand conjugation in deionized filtered water.

A further data set has as its system ARPE-19 cells. Put plainly: Nanoparticle uptake by human retinal pigment epithelial cells. In kind it is cell-based. The settings on record: 1 ml of 100 μg/ml suspension in serum free medium. The protocol: A study was performed to examine the effect of targeting moieties on biodegradable and non-biodegradable carrier particles and their uptake in ocular cells. The biodegradable and non-biodegradable targeted carrier particles of the preceding Example were used. Uptake of nanoparticles by human retinal pigment epithelial cells (ARPE-19 cell line) was quantified by measuring fluorescence in cell lysate obtained after incubation of targeted or untargeted (unconjugated) nanoparticles with ARPE-19 cell monolayers.
ARPE-19 cells were obtained from American Type Culture Collection (ATCC, Manassas, Va.). The cells were maintained in culture according to supplier's recommendation. All studies were conducted using confluent cells of passages 20-30. Dulbecco's modified Eagle's medium (DMEM-F/12), fetal bovine serum, penicillin-streptomycin and L-glutamine were obtained from Gibco-BRL (Invitrogen Inc., Carlsbad, Calif.). Cell culture flasks (T-75 cm^2) and plates were purchased from Corning Inc., (Corning, N.Y.). To investigate the uptake of particles, ARPE-19 cells between 20-30 passages were cultured in 24-well plates until confluency. […] Fluorescence intensity of the cell lysates was determined at an excitation and emission wavelength of 505 and 515 nm, respectively, for FluoSpheres®. […]

In the next data set the target is T1, LHRH-receptor (Bos taurus, UniProt P32236).
T1 construct: The tissue homogenate was then centrifuged at 15000 g for 15 min at 4° C. to separate the crude membrane from the buffer; from tissue; host or cells: bovine nasal mucosa (MTA, MTP, ITP regions) and bovine pituitary, crude membrane homogenates
T1 sequence (P32236 1-328): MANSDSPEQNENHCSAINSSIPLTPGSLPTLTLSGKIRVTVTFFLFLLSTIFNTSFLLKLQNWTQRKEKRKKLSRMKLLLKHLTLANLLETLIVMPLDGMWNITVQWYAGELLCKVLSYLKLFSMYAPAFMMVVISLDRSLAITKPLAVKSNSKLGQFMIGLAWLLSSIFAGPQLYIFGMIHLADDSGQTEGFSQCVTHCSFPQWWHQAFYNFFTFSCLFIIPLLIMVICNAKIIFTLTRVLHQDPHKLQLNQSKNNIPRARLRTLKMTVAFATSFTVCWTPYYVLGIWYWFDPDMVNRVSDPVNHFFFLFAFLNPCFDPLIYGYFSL
In words: Receptor binding assays (kinetic, saturation, competition) with 125I-deslorelin in bovine pituitary and nasal tissue homogenates. The conditions noted are these: 4° C.; remained stable until 4 hr. The protocol:
Radioactivity was measured in the pellet using a Perkin-Elmer γ-counter.
Reprod. […] Reprod. […] Radioactivity was measured in the pellet using a Perkin-Elmer γ-counter. […] The experiment was repeated three times.
Competition Studies: To determine the amount of unlabelled deslorelin required to displace the radioactivity, competition studies were conducted. […] Assays were performed in triplicates. At the end of 4 hr, the incubation tubes were centrifuged at 10,000 g for 20 min at 4° C. to separate the bound fraction. Radioactivity was measured in the pellet using a Perkin-Elmer γ-counter. The same controls as in the kinetic and saturation studies were used. The experiment was repeated three times.

For “Transferrin-PLGA: transferrin conjugated nile red loaded PLGA nanoparticles”, in data set [1], the Zeta potential is −17.94 ± 1.5 mV. The Effective diameter in data set [1] (1:1000 dilution in filtered deionized water) turned out to be 385.8 ± 4.6 nm. The “percentage uptake at 3 h by ARPE-19 cells” value in the data set with ARPE-19 cells is 3.32±0.1%.

In the case of “^125I-deslorelin: I^125 labeled deslorelin radioligand (EHWSYWLRP; D-residues; non-natural residues)”, in the data set with LHRH-receptor, the “time at which binding reached a maximum” value turned out to be 1.5 h.

The values are drawn from patent US8821943B2, “Methods and compositions for targeted delivery of therapeutic agents” (Board of Regents of the University of Nebraska, priority 2006, dated 2014).
